Assay results: patent publication US20240058465A1 (SUTRO BIOPHARMA, published 2024)

Molecular target: receptor tyrosine kinase orphan receptor 1 (ROR1) on Ntera-2 cells (human, UniProt Q01973 30-937)
Assay: cell-based or functional assay

Binder	cell killing EC50, NTERA-2 cells	cell killing Span, NTERA-2 cells
D04-Y180/F404-LP32 (printed under conjugate number 21, DAR 3.85) (antibody, human IgG1, kappa, pAMF at Y180 and F404 (EU), each linked to LP32) heavy: MEVQLVESGGGLVQPGGSLRLSCAASGFNISDYDIHWVRQAPGKGLEWVGGIDPADGSTDYADSVKGRFTISADTSKNTAYLQMNSLRAEDTAVYYCARDYGVYDYWGQGTLVTVSSASTKGPSVFPLAPSSKSTSGGTAALGCLVKDYFPEPVTVSWNSGALTSGVHTFPAVLQSSGLSLSSVVTVPSSSLGTQTYICNVNHKPSNTKVDKKVEPKSCDKTHTCPPCPAPELLGGPSVFLFPPKPKDTLMISRTPEVTCVVVDVSHEDPEVKFNWYVDGVEVHNAKTKPREEQYNSTYRVVSVLTVLHQDWLNGKEYKCKVSNKALPAPIEKTISKAKGQPREPQVYTLPPSREEMTKNQVSLTCLVKGFYPSDIAVEWESNGQPENNYKTTPPVLDSDGSFLYSKLTVDKSRWQQGNVFSCSVMHEALHNHYTQKSLSLSPGK light: not shown	> 10000 pM	< 20%
Conjugate 21 (D04-F404-LP32) (antibody, human IgG1, kappa, pAMF at F404 (EU), linked to LP32) heavy: MEVQLVESGGGLVQPGGSLRLSCAASGFNISDYDIHWVRQAPGKGLEWVGGIDPADGSTDYADSVKGRFTISADTSKNTAYLQMNSLRAEDTAVYYCARDYGVYDYWGQGTLVTVSSASTKGPSVFPLAPSSKSTSGGTAALGCLVKDYFPEPVTVSWNSGALTSGVHTFPAVLQSSGLYSLSSVVTVPSSSLGTQTYICNVNHKPSNTKVDKKVEPKSCDKTHTCPPCPAPELLGGPSVFLFPPKPKDTLMISRTPEVTCVVVDVSHEDPEVKFNWYVDGVEVHNAKTKPREEQYNSTYRVVSVLTVLHQDWLNGKEYKCKVSNKALPAPIEKTISKAKGQPREPQVYTLPPSREEMTKNQVSLTCLVKGFYPSDIAVEWESNGQPENNYKTTPPVLDSDGSFLYSKLTVDKSRWQQGNVFSCSVMHEALHNHYTQKSLSLSPGK light: not shown	2960 pM	97%
Conjugate 20 (D04-F404-LP31) (antibody, human IgG1, kappa, pAMF at F404 (EU), linked to LP31) heavy: MEVQLVESGGGLVQPGGSLRLSCAASGFNISDYDIHWVRQAPGKGLEWVGGIDPADGSTDYADSVKGRFTISADTSKNTAYLQMNSLRAEDTAVYYCARDYGVYDYWGQGTLVTVSSASTKGPSVFPLAPSSKSTSGGTAALGCLVKDYFPEPVTVSWNSGALTSGVHTFPAVLQSSGLYSLSSVVTVPSSSLGTQTYICNVNHKPSNTKVDKKVEPKSCDKTHTCPPCPAPELLGGPSVFLFPPKPKDTLMISRTPEVTCVVVDVSHEDPEVKFNWYVDGVEVHNAKTKPREEQYNSTYRVVSVLTVLHQDWLNGKEYKCKVSNKALPAPIEKTISKAKGQPREPQVYTLPPSREEMTKNQVSLTCLVKGFYPSDIAVEWESNGQPENNYKTTPPVLDSDGSFLYSKLTVDKSRWQQGNVFSCSVMHEALHNHYTQKSLSLSPGK light: not shown	> 10000 pM	> 60%
Conjugate 23 (D04 x D04-F404-LP8) (antibody, human IgG1, kappa, pAMF at F404 (EU), linked to LP8) heavy 1: MEVQLVESGGGLVQPGGSLRLSCAASGFNISDYDIHWVRQAPGKGLEWVGGIDPADGSTDYADSVKGRFTISADTSKNTAYLQMNSLRAEDTAVYYCARDYGVYDYWGQGTLVTVSSASTKGPSVFPLAPSSKSTSGGTAALGCLVKDYFPEPVTVSWNSGALTSGVHTFPAVLQSSGLYSLSSVVTVPSSSLGTQTYICNVNHKPSNTKVDKKVEPKSCDKTHTCPPCPAPELLGGPSVFLFPPKPKDTLMISRTPEVTCVVVDVSHEDPEVKFNWYVDGVEVHNAKTKPREEQYNSTYRVVSVLTVLHQDWLNGKEYKCKVSNKALPAPIEKTISKAKGQPREPQVYTLPPSREEMTKNQVSLWCLVKGFYPSDIAVEWESNGQPENNYKTTPPVLDSDGSFLYSKLTVDKSRWQQGNVFSCSVMHEALHNHYTQKSLSLSPGK heavy 2: MEVQLVESGGGLVQPGGSLRLSCAASGFNISDYDIHWVRQAPGKGLEWVGGIDPADGSTDYADSVKGRFTISADTSKNTAYLQMNSLRAEDTAVYYCARDYGVYDYWGQGTLVTVSSASTKGPSVFPLAPSSKSTSGGTAALGCLVKDYFPEPVTVSWNSGALTSGVHTFPAVLQSSGLYSLSSVVTVPSSSLGTQTYICNVNHKPSNTKVDKKVEPKSCDKTHTCPPCPAPELLGGPSVFLFPPKPKDTLMISRTPEVTCVVVDVSHEDPEVKFNWYVDGVEVHNAKTKPREEQYNSTYRVVSVLTVLHQDWLNGKEYKCKVSNKALPAPIEKTISKAKGQPREPQVYTLPPSREEMTKNQVSLSCAVKGFYPSDIAVEWESNGQPENNYKTTPPVLDSDGSFLVSKLTVDKSRWQQGNVFSCSVMHEALHNHYTQKSLSLSPGK light: not shown	22 pM	83%
Conjugate 24 (D04 x C01-F404-LP8 biparatopic) (bispecific antibody, human IgG1, kappa, pAMF at F404 (EU), linked to LP8) heavy 1: MEVQLVESGGGLVQPGGSLRLSCAASGFNISDYDIHWVRQAPGKGLEWVGGIDPADGSTDYADSVKGRFTISADTSKNTAYLQMNSLRAEDTAVYYCARDYGVYDYWGQGTLVTVSSASTKGPSVFPLAPSSKSTSGGTAALGCLVKDYFPEPVTVSWNSGALTSGVHTFPAVLQSSGLYSLSSVVTVPSSSLGTQTYICNVNHKPSNTKVDKKVEPKSCDKTHTCPPCPAPELLGGPSVFLFPPKPKDTLMISRTPEVTCVVVDVSHEDPEVKFNWYVDGVEVHNAKTKPREEQYNSTYRVVSVLTVLHQDWLNGKEYKCKVSNKALPAPIEKTISKAKGQPREPQVYTLPPSREEMTKNQVSLWCLVKGFYPSDIAVEWESNGQPENNYKTTPPVLDSDGSFLYSKLTVDKSRWQQGNVFSCSVMHEALHNHYTQKSLSLSPGK heavy 2: MEVQLVESGGGLVQPGGSLRLSCAASGFNINGYDIHWVRQAPGKGLEWVGYIDPNDGATNYADSVKGRFTISADTSKNTAYLQMNSLRAEDTAVYYCARDYGVFDYWGQGTLVTVSSASTKGPSVFPLAPSSKSTSGGTAALGCLVKDYFPEPVTVSWNSGALTSGVHTFPAVLQSSGLYSLSSVVTVPSSSLGTQTYICNVNHKPSNTKVDKKVEPKSCDKTHTCPPCPAPELLGGPSVFLFPPKPKDTLMISRTPEVTCVVVDVSHEDPEVKFNWYVDGVEVHNAKTKPREEQYNSTYRVVSVLTVLHQDWLNGKEYKCKVSNKALPAPIEKTISKAKGQPREPQVYTLPPSREEMTKNQVSLSCAVKGFYPSDIAVEWESNGQPENNYKTTPPVLDSDGSFLVSKLTVDKSRWQQGNVFSCSVMHEALHNHYTQKSLSLSPGK light: not shown	17 pM	85%
Conjugate 25 (D04 x B09-F404-LP8 biparatopic) (bispecific antibody, human IgG1, kappa, pAMF at F404 (EU), linked to LP8) heavy 1: MEVQLVESGGGLVQPGGSLRLSCAASGFNISDYDIHWVRQAPGKGLEWVGGIDPADGSTDYADSVKGRFTISADTSKNTAYLQMNSLRAEDTAVYYCARDYGVYDYWGQGTLVTVSSASTKGPSVFPLAPSSKSTSGGTAALGCLVKDYFPEPVTVSWNSGALTSGVHTFPAVLQSSGLYSLSSVVTVPSSSLGTQTYICNVNHKPSNTKVDKKVEPKSCDKTHTCPPCPAPELLGGPSVFLFPPKPKDTLMISRTPEVTCVVVDVSHEDPEVKFNWYVDGVEVHNAKTKPREEQYNSTYRVVSVLTVLHQDWLNGKEYKCKVSNKALPAPIEKTISKAKGQPREPQVYTLPPSREEMTKNQVSLWCLVKGFYPSDIAVEWESNGQPENNYKTTPPVLDSDGSFLYSKLTVDKSRWQQGNVFSCSVMHEALHNHYTQKSLSLSPGK heavy 2: MEVQLVESGGGLVQPGGSLRLSCAASGFNINNSYIHWVRQAPGKGLEWVGIIDPNNGSTAYADSVKGRFTISADTSKNTAYLQMNSLRAEDTAVYYCARSRWYRVLWSYVLDYWGQGTLVTVSSASTKGPSVFPLAPSSKSTSGGTAALGCLVKDYFPEPVTVSWNSGALTSGVHTFPAVLQSSGLYSLSSVVTVPSSSLGTQTYICNVNHKPSNTKVDKKVEPKSCDKTHTCPPCPAPELLGGPSVFLFPPKPKDTLMISRTPEVTCVVVDVSHEDPEVKFNWYVDGVEVHNAKTKPREEQYNSTYRVVSVLTVLHQDWLNGKEYKCKVSNKALPAPIEKTISKAKGQPREPQVYTLPPSREEMTKNQVSLSCAVKGFYPSDIAVEWESNGQPENNYKTTPPVLDSDGSFLVSKLTVDKSRWQQGNVFSCSVMHEALHNHYTQKSLSLSPGK light: not shown	18 pM	87%
Conjugate 17 (D04-F404-LP14) (antibody, human IgG1, kappa, pAMF at F404 (EU), linked to LP14) heavy: MEVQLVESGGGLVQPGGSLRLSCAASGFNISDYDIHWVRQAPGKGLEWVGGIDPADGSTDYADSVKGRFTISADTSKNTAYLQMNSLRAEDTAVYYCARDYGVYDYWGQGTLVTVSSASTKGPSVFPLAPSSKSTSGGTAALGCLVKDYFPEPVTVSWNSGALTSGVHTFPAVLQSSGLYSLSSVVTVPSSSLGTQTYICNVNHKPSNTKVDKKVEPKSCDKTHTCPPCPAPELLGGPSVFLFPPKPKDTLMISRTPEVTCVVVDVSHEDPEVKFNWYVDGVEVHNAKTKPREEQYNSTYRVVSVLTVLHQDWLNGKEYKCKVSNKALPAPIEKTISKAKGQPREPQVYTLPPSREEMTKNQVSLTCLVKGFYPSDIAVEWESNGQPENNYKTTPPVLDSDGSFLYSKLTVDKSRWQQGNVFSCSVMHEALHNHYTQKSLSLSPGK light: not shown	30 pM	77%
Conjugate 19 (D04-F404-LP30) (antibody, human IgG1, kappa, pAMF at F404 (EU), linked to LP30) heavy: MEVQLVESGGGLVQPGGSLRLSCAASGFNISDYDIHWVRQAPGKGLEWVGGIDPADGSTDYADSVKGRFTISADTSKNTAYLQMNSLRAEDTAVYYCARDYGVYDYWGQGTLVTVSSASTKGPSVFPLAPSSKSTSGGTAALGCLVKDYFPEPVTVSWNSGALTSGVHTFPAVLQSSGLYSLSSVVTVPSSSLGTQTYICNVNHKPSNTKVDKKVEPKSCDKTHTCPPCPAPELLGGPSVFLFPPKPKDTLMISRTPEVTCVVVDVSHEDPEVKFNWYVDGVEVHNAKTKPREEQYNSTYRVVSVLTVLHQDWLNGKEYKCKVSNKALPAPIEKTISKAKGQPREPQVYTLPPSREEMTKNQVSLTCLVKGFYPSDIAVEWESNGQPENNYKTTPPVLDSDGSFLYSKLTVDKSRWQQGNVFSCSVMHEALHNHYTQKSLSLSPGK light: not shown	43 pM	83%
